Here are results for one molecule from paper PMC3498520 (Journal of the American Chemical Society, 2012).

The format of this experiment is biochemical. The settings on record: total turnovers in ART hydroxylation; purified P450, NADPH regeneration system, 12 h.

B1: wild-type P450BM3: catalytically self-sufficient fatty acid monooxygenase P450BM3 from Bacillus megaterium (protein, UniProt P14779 1-1049, looked up)
Bifunctional cytochrome …: MTIKEMPQPKTFGELKNLPLLNTDKPVQALMKIADELGEIFKFEAPGRVTRYLSSQRLIKEACDESRFDKNLSQALKFVRDFAGDGLFTSWTHEKNWKKAHNILLPSFSQQAMKGYHAMMVDIAVQLVQKWERLNADEHIEVPEDMTRLTLDTIGLCGFNYRFNSFYRDQPHPFITSMVRALDEAMNKLQRANPDDPAYDENKRQFQEDIKVMNDLVDKIIADRKASGEQSDDLLTHMLNGKDPETGEPLDDENIRYQIITFLIAGHETTSGLLSFALYFLVKNPHVLQKAAEEAARVLVDPVPSYKQVKQLKYVGMVLNEALRLWPTAPAFSLYAKEDTVLGGEYPLEKGDELMVLIPQLHRDKTIWGDDVEEFRPERFENPSAIPQHAFKPFGNGQRACIGQQFALHEATLVLGMMLKHFDFEDHTNYELDIKETLTLKPEGFVVKAKSKKIPLGGIPSPSTEQSAKKVRKKAENAHNTPLLVLYGSNMGTAEGTARDLADIAMSKGFAPQVATLDSHAGNLPREGAVLIVTASYNGHPPDNAKQFVDWLDQASADEVKGVRYSVFGCGDKNWATTYQKVPAFIDETLAAKGAENIADRGEADASDDFEGTYEEWREHMWSDVAAYFNLDIENSEDNKSTLSLQFVDSAADMPLAKMHGAFSTNVVASKELQQPGSARSTRHLEIELPKEASYQEGDHLGVIPRNYEGIVNRVTARFGLDASQQIRLEAEEEKLAHLPLAKTVSVEELLQYVELQDPVTRTQLRAMAAKTVCPPHKVELEALLEKQAYKEQVLAKRLTMLELLEKYPACEMKFSEFIALLPSIRPRYYSISSSPRVDEKQASITVSVVSGEAWSGYGEYKGIASNYLAELQEGDTITCFISTPQSEFTLPKDPETPLIMVGPGTGVAPFRGFVQARKQLKEQGQSLGEAHLYFGCRSPHEDYLYQEELENAQSEGIITLHTAFSRMPNQPKTYVQHVMEQDGKKLIELLDQGAHFYICGDGSQMAPAVEATLMKSYADVHQVSEADARLWLQQLEEKGRYAKDVWAG
As for B1, the TTN result was “no ART-oxidation activity”.
